Results on 84 variants are retold here after the RNAGym collection of RNA variant scans (doi:10.1101/gr.219683.116).

The labels stand for the following.
B1: mRNA-splicing (parent)
chain: AGUUGCUGCUGGGAGCUCCAGCACAGUGAAAUGGACAGAAGGGCAGAGCAA

In this series the parent is B1. In words: exon inclusion enrichment index; higher = more inclusion; WT1 exon 5 minigene, HEK293.
Consider G5A U7C G8A C9U, for which the “exon inclusion enrichment index” value came to 0.959. Consider C6A U7C C9A U10C A45G G46C, for which the “exon inclusion enrichment index” value stood at 3.3. G5A C6G U7G C9A C18A C19U: the “exon inclusion enrichment index” value came to 0.00126. As for G42U G43A, the “exon inclusion enrichment index” value was 0.492. The result for U32G reads 0.0106; that for C6A U7C C9A U10C G33C G34C, 2.01; that for G5C C6U G8C C9U U10C G13A A14G, 2.03. As for G5A C6G U7G C9A A40G G41C, the figure is 0.0252; as for C6A U7A C9A U10A A31C U32A, 0.428. The result for C6A U7A C9A U10A A30U A31C reads 0.579; that for G5C C6G U7C U10C G12A G13U, 0.589; that for G5C C6G U7C U10C G12A G13C, 1.55. Take C6A U7A C9A U10A U27C G28U: the “exon inclusion enrichment index” value worked out at 0.4. The result for C6A U7A C9A U10A G42A G43C reads 3.53; that for C6A U7C C9A U10C C18U C19A, 0.757.

In the case of G5A C6U U7A G8U C9A G34A, the “exon inclusion enrichment index” value came out at 0.0272. As for G5A C6U U7A G8U C9A G34A A35U, the figure is 0.00832; as for G2U U3C G5C C6A U7C G8A U10A, 0.619; as for C6A U7A C9A U10A U27G, 0.189. As for C6U U7A, the figure is 0.0485; as for C6U U7C, 0.178. The result for G5C C6G U7C U10C C16G reads 2.97; that for G5U G8U C9U A37G G38C, 0.241. Regarding C6A U7A C9A U10A A40C G41U, the “exon inclusion enrichment index” value worked out at 0.431. The result for G5A C6G U7G C9A A37G reads 0.00135; that for C6A U7C C9A U10C A30G, 3.61. As for G5A U7C G8A U10C, the figure is 2.53; as for G34U A35C, 0.0394; as for G5A C6U U7A G8U C9A G11C G12A, 0.0128. As for G5A C6U U7A G8U C9A G11C G12U, the figure is 0.0197.

On to C6A U7C C9A U10C C24G A25C, for which the “exon inclusion enrichment index” value came out at 4.59. As for G5A U7C G8A U10C G34U A35U, the figure is 0.441; as for G5C C6A U7C G8A U10A A20G G21U, 0.177. As for G5A U7C G8A U10C G42A G43A, the “exon inclusion enrichment index” value was found to be 4.61. Consider G5C C6G U7C U10C A35U C36A, for which the “exon inclusion enrichment index” value is 0.0112. The result for G5C C6G U7C U10C A35U C36G reads 0.445; that for C6A U7A C9A U10A G12A, 1.32. The result for G5A U7C G8A U10C G21U C22U reads 0.857.

In the case of G5C C6U G8C C9U U10A, the “exon inclusion enrichment index” value came to 0.186. For U3C U4A G5C C6A U7C G8A U10A, the “exon inclusion enrichment index” value was 0.0745. The result for G5C C6U G8C C9U U10C G43U C44G reads 0.398. The result for A25U reads 0.241; that for G11U G12A, 0.315; that for G5C C6A U7C G8A U10A C36A, 0.0935.

Turning to G5A C6G U7G C9A G46C A47C, the “exon inclusion enrichment index” value amounted to 0.00161. As for G5C C6G U7C U10C A39G A40U, the figure is 0.671; as for A45U, 0.318; as for G5A C6U U7A G8U C9A A35U C36G, 0.00319. Consider G2U U3G G5A C6U U7A G8U C9A, for which the “exon inclusion enrichment index” value was found to be 0.348.

With G5U G8U C9U A45C G46A, the “exon inclusion enrichment index” value came to 0.056. The result for G5U G8U C9U A45C G46U reads 0.0571. As for C6A U7A C9A U10A G43A, the figure is 2.02. In the case of G5A U7C G8A U10C C36U A37C, the “exon inclusion enrichment index” value is 1.63. The result for G5A U7C G8A U10C G12U G13U reads 0.053. Turning to G5U G8U C9U G11A G12U, the “exon inclusion enrichment index” value was 0.00501. G5A U7C G8A U10C A31C: the “exon inclusion enrichment index” value stood at 2.89. As for G5A C6U U7A G8U C9A C36U, the figure is 0.00462; as for G5C C6A U7C G8A U10A G33A G34A, 0.00429. As for G5U G8U C9U A14G G15A, the figure is 0.0466; as for G5U G8U C9U G13U, 0.00294; as for G5C C6G U7C U10C U32A, 3.12.

On to G5C C6U G8C C9U U10C G21C, for which the “exon inclusion enrichment index” value stood at 1.57. As for G5U G8U C9U U32G, the figure is 0.00207; as for G5U G8U C9U A35C C36A, 0.0636; as for G5A U7C G8A U10C G26C U27A, 2.48. As for G5A C6U U7A G8U C9A A14U G15C, the figure is 0.00818; as for G5C C6G U7C U10C A31U U32G, 2.24; as for G5A C6U U7A G8U C9A G15C, 0.156. As for G5A C6G U7G C9A C18G C19U, the figure is 0.00119; as for G5U G8U C9U G13C A14G, 0.2. On to G5U G8U C9U G46U A47C, for which the “exon inclusion enrichment index” value is 0.55. The result for G5C C6A U7C G8A U10A C16G U17C reads 0.0308; that for C44G A45U, 0.0615. As for G5U C6G U7A C9A U10A, the figure is 0.147; as for C6A U7C C9A U10C G43A C44A, 4.49. As for G5U G8U C9U A20C G21C, the figure is 0.0207; as for G5A U7C G8A U10C A37C G38C, 2.35; as for G5U G8U C9U G26U U27C, 0.729. Turning to G5C C6A U7C G8A U10A G38U A39C, the “exon inclusion enrichment index” value was found to be 0.0552. Turning to G5C C6G U7C U10C A40G, the “exon inclusion enrichment index” value is 3.16. The result for G5A C6G U7G C9A G28C A29U reads 0.00174.

With G5A C6U U7A G8U C9A C22A A23G, the “exon inclusion enrichment index” value is 0.0409. The result for G5A C6U U7A G8U C9A C22A A23C reads 0.189; that for G5U G8U C9U A39U A40G, 0.0207.
